Target: the molecule itself
Test: SDS-PAGE and immunoblot of the PLB pentamer

B1: L31A phospholamban mutant (untagged) (natural protein, human, UniProt P26678 1-52, looked up)
chain: MEKVQYLTRSAIRRASTIEMPQQARQKLQNAFINFCLILICLLLICIIVMLL
stoichiometry N: 5

— publication PMC7035975 (Journal of molecular and cellular cardiology, 2019)
